Test results reported in the nanobody polyreactivity screen of Harvey et al. (2022).

experiment: yeast display, Sf9 membrane polyspecificity reagent, FACS + sequencing; frameworks hold sequencing errors
How it was run: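 In a synthetic yeast display library (Saccharomyces cerevisiae BJ5465), nanobody expression was induced with galactose for 36–48 hours. FACS gates were set low and high (top ~1%) using anti-HA fluorescence for expression and streptavidin fluorescence for binding of the Sf9 membrane reagent. Each polyreactivity label is drawn from the gate of origin.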

Sequence | polyreactivity (PSR sort gate)
QVQLVESGGVLVQAGGSLRLSCAASGSIFSSNAMGWYRQAPGKERELVAAISSSGGSTYYADSVKGRFTISRDNAKNTVYLQMNSLKPEDTAVYYCATGKQVYGHYYWGQGTQVTVSS | low polyreactivity
QVQLVESGGVLVQAGGSLRLSCAASGSLFILYALGWYRQEPGKEREFVASISRSGSTYYADSVKGRFTISRDNAKNSVYLQMNSLKPEDTAVYYCAADYRQFYRYVDYEYWGQGTQVTVSS | low polyreactivity
QVQLVESGGVLVQAGGSLRLSCAASGSTFYTYAMGWYRQAPGKERELVAAITRRGGRTYYADSVKGRFTISRDIAKNTVYLQMNSLKPEDTSVYYCAAYPWATCYGEWGQGTQVTVSS | high polyreactivity
QVQLVESGGVLVQAGGSLRLSCAASGYINGRYVMGWYRTAPGKETELVAAITSSGGSTYYADSVKGRFTISRDNAKNTVYLQINILSPDDTAVYYCAAPTYGRFLRNDYWGPGTQVTVSS | high polyreactivity
QVQLVESGGVLVQAGGSLRLSCADSGSTFFFYAMGWYRHAPGKERELLAAISSTGRTYYADSVKGRFTISRDNAKNSVYLQMNSLKPEETAVYYCAARIYSGYSYWGQGTQVTVSS | high polyreactivity
QVQLVESGGVLVQAGGSLRLTCAAYGFSFSTYAMGWYRQAPGKERQLVASIDWSGDSTYYADSVKGRFTISRDNAKNTVYLQMNSLKPEDTAVYYCAADDASYPYIFDSYDYWGQGTQVTVSS | low polyreactivity
QVQLVESGGVLVQAGVSLRLSCAASGRTFFRYTMGWYRQAPGKERELVAAISRSDGSTYYADSVKGRFTISRDNAKNTVYLQMNSLKPEDTAVYYCAKSLPSGYYYWGQGTQVTVSS | low polyreactivity
QVQLVESGGVLVQAVGSLRLSCAASGSIFHDYALGWYRQAPGKEREMVAAISSGSGSTSYADSVKGRFTISRDNAKNTVYLQMNSLKPEATAVYYCNADADAVPFAFRGSYDYWGQGTQVTVSS | low polyreactivity
QVQLVESGGVLVQPGCILRLSCAASGRIYWYYAMGWYRQAPGKERELVAAISRSRGSTYYADSVKGRFTISRDNEKNTVYLQMNSLKPEDTAVYYCAAGARAFDDDYWGQGTQVTVSS | low polyreactivity
QVQLVESGGVLVQPGGSLRLSCAASGSTFQSYTMGWYRQAPGKERELVAAISSSGGRTYYADSVKGRFTISRDNEKNTVYLQMNRLKPEDTAVYYCAAVTKSWRGATWYDYWGQGTHVTVSS | high polyreactivity
QVQLVESGGVLVQSGGSLRLSCAASGRTFWWYAMGWYRQAPGKERALVAGISSGGSTYYADSVKGRFTISRDNAKYTVYLQMNSLKPEDTAVYYCAKTYWYPWRASLWHEYDYWGQGTQVTVSS | low polyreactivity
QVQLVESGLGLVQAGGSLRLSCAASGTTLLGYAMGWYRQAPGKERELVAAITGSGGRTSYADSVKGRFTISRDNAKNTVYLQMNSLKPEDTAVYYCAAARRYHFQRFNYWGQGTQVTVSS | high polyreactivity
QVQLVESGPGLVQAGGSLRLSSAASGLTFRWNGMGWYRQATGKERELVAAITGNAGSTYYADSVKGRFTISRDNAKNTVYLQMKSLNPEDTAVYYCAARLRYYYLVGYGYWGQGTQVTVSS | high polyreactivity
QVQLVESGRALVQAGGSLRVSCAASGRTFDTNAMGWYRQAPGKERELVAVITARGGNTSYADSVKGRFTLSRDNAKNSVYLQMNSLKPEDTAVYYCAARVYRAPWTYDEGNYWGQGTQVTVSS | low polyreactivity
QVQLVESGRCLVQAGGSLRLSCAASGITFDGNAMGWYRQEPGKERELVAGITRIGGGTYYADSVKGRFTISRDNAKNTVYLQMNSLKPEDTAVYYSAKDALVPNFTKDIFEYDYWGQVTQVTVSS | low polyreactivity
QVQLVESGRGIVQAGGSLRLSCAASGSTFAVNAMGWYRQAPGKERELVAAISTGGSTNYADSVKGRFTISRDNEKNTVFLQMNSLKPEDTAVYYCAAEHPVTYPTSKFDYWGQGTQVTVSS | low polyreactivity
QVQLVESGRGKVQAGGSLRLSCAASGFTFRGNAMGWYRQAPGKERELVAAITSSGGRTYYADSVKGRFTISRDNAKNTVYLQMNSLKPEDTAVYYCAARYAYPSRYYYWGQGTQVTVSS | high polyreactivity
QVQLVESGRGLFQAGGSLRLSCAASGSIFYSYAMGWYRQAPGKERELVAAISRSGGSTYYADSVKGRFTISRDNAKNTVYLQMNSLKPEDTAVYYCAAKNTGRYYWGLGTQVTVSS | high polyreactivity
QVQLVESGRGLVHAGGSIRLSCAASGRIFGLYAIGWYRQAPGKERELVASINSRGGSTNYAVSVKGRFTISRDNAMNTVYLQMNSLKPEDTAVYYCNARIVYAYQRYYWGQGTHVTVSS | high polyreactivity
QVQLVESGRGLVQAGASLRLSCAASGSTFAQYARGSYRQAPWKESELVAAITRTGITNYADSVKGRFTISRDNAKNNVYLQMNSLKPEDTAVYYCAARRWRNGYGTGYGYWGLGTQVTVSS | high polyreactivity
QVQLVESGRGLVQAGASLRLSCAASGSTFYVNAMGWYRQAPGKERELVAAITSTGTTHYADSVKGRFTISRDNAKNTVYLQMNSLKPEDTAVYYCAAYSRYQSRRYYYWGQGTQVTVSS | high polyreactivity

Sequence | polyreactivity (PSR sort gate)
QVQLVESGRGLVQAGGILRLSCAASGFIFYYYAMVWYRQAPGKERELVAAISQRGGRTYYAESVKGSFTISRDYAKNTVYLQMNSLKTEDTAVYYCAARPAYRSSYYWGQGTQVTVSS | high polyreactivity
QVQLVESGRGLVQAGGSLRLSCAAAGSTFVSYDLGWSRQAPGKERELLADISWSGVSTDADSVKGRFTLSRDNAKNTVYLQMNSLKPEDPAVYYCAKDSDLYQRGGYYWGQGTQVTVSS | low polyreactivity
QVQLVESGRGLVQAGGSLRLSCAASGFTFKSYAKGWYRHATGKVRELVAAISRGTSTKYADSVKGRFTISRDNAKNTVYLQMNSLKPEDSAVYNCAALFPTSDLRLRYYRYDYWGQGTQVTVSS | low polyreactivity
QVQLVESGRGLVQAGGSLRLSCAASGIIFPFYAMGCYRQAPGKERELVAAITSGDDTYYADSVKGRFTISRDNAKNTVYLQMNSLKPEDTAVYYCNKRLYIAGYWPQLYYIMDYWGQGTQVTVSS | low polyreactivity
QVQLVESGRGLVQAGGSLRLSCAASGIIFRLNAMGWYRQAPGKERELVAAILRRGGSTYYADSVKGRFTISRDNAKNTVYFQMNSLKPEDTAVDYCAKDPHGSDFGYWGQGTQVTVSS | low polyreactivity
QVQLVESGRGLVQAGGSLRLSCAASGITCPVNVMGWYRQAPGKERELVAAISTSGGSTYYADSVKGRFTISRDNAKNTVYLQMNSLKPEDTAVYYCARQYIRSSYGYWGQGTQVTVSS | low polyreactivity
QVQLVESGRGLVQAGGSLRLSCAASGITFEYYAMGWYRQAPGKERELVAAIDTGGSTNYADSVKGRFTISRDNAKNTVYLQMNSLKPEDTAVYYCAADWSWWDGEDYHFEYDYWGQGTQVTVSS | low polyreactivity
QVQLVESGRGLVQAGGSLRLSCAASGITFNFYAKGWYRKAPGKERELVAAITQSGGSTYYADSVKGRFTISRDNAKNTVYLQMISLKPEDTAVYYWAAARTGHMYDLGQGTQVTVSS | high polyreactivity
QVQLVESGRGLVQAGGSLRLSCAASGITFTAYAMGWYRQAPGLERQLVATINSTGITNYADSLKGRFTISRDNAKNTVYLQMNSLKPEDTAVYYCAADLLYISSYDGMDYWGQGTQVTVSS | low polyreactivity
QVQLVESGRGLVQAGGSLRLSCAASGITYGNNAMGWYRQAPGKERELVATITSSGGSTYYADSVKGRFTISRDNAKNTVYSQMNSLKPEDTAVYYCAARQPGTRYPYDYWGQGTQVTVSS | high polyreactivity
QVQLVESGRGLVQAGGSLRLSCAASGLIFTANAMGWYRQAPGKERELVASITRDGGTNYADSVKVRFTISRDNAKNTVYLQMNSLKPEDTAVYYCAKESGSVLTLYDYWGQGTQVTVSS | low polyreactivity
QVQLVESGRGLVQAGGSLRLSCAASGRIFSTYAMGWYRQAPGKERELVAAISWRGSSTYYADSVKGRFTISRDNAKNTVYLQMNSLKPEDPAVYYCNADKANRYDWGQGTQVTVSS | high polyreactivity
QVQLVESGRGLVQAGGSLRLSCAASGRIFYVYDMGWYRQAPGKESELVAAITQSGGRTYYADSVKGRFTISRDNAKNTVYLQRNSLKPEDTAVYYCAATWLGSRNLVHITLYYWGQGTQVTVSS | low polyreactivity
QVQLVESGRGLVQAGGSLRLSCAASGRIFYYNDMGWYRQAPGNERELFAAITWTDDGTYYADSVKGRFTISRDNAKNTVYLQMNSLKPVDTAVYYCAKDYNRTVEDWAKVNGFDFWGQVTQVTVSS | low polyreactivity
QVQLVESGRGLVQAGGSLRLSCAASGRTFPVYAMGWYRQAPGKERELVAAITYSGGSTSYADSVKGRFTISRDNAKNTVYLQMNSLKPEDTAVYYCAADRAYYSRGIGSVGYYYWGQGTQVTVSS | low polyreactivity
QVQLVESGRGLVQAGGSLRLSCAASGSIFAFYAMGWYRPAAGKERELVAVITRSGGSTYYADSVKGRFTISRDNAKITVYLQMNSLKPEDTAVFYCAARTGYGYTRYEYWGQGTQVTVSS | high polyreactivity
QVQLVESGRGLVQAGGSLRLSCAASGSIFGYYAMGWYRQAPGKERELVAAISRSGGSTYYADSVKGRFTISRDNAKNTVYLQMNSLKPEDTAVYYCAADDYPYGNYYWGQGTQVTVSS | high polyreactivity
QVQLVESGRGLVQAGGSLRLSCAASGSIFTHYAMVWYRQAPGKERELVATISNGDGSTYYADSVKGRFTISRDNAKNTVYLQMNSLKPEDTAVYYCNVDDFSQYADDSWGYEYWGQGTQVTVSS | low polyreactivity
QVQLVESGRGLVQAGGSLRLSCAASGSTCEGNAMGWYRQAPGKEELVAAISWSSDSTYNADSVKGRFTISRDNAKNTVYLQMNSLKPEDTAVYYCAAAIPGKYSNDYWGQGTQVTVSS | high polyreactivity
QVQLVESGRGLVQAGGSLRLSCAASGSTFAPYTMGWYRQAPGKERELVAAISWNGGRTSYADSVKGRFTISRDNAKNTVYLQMNSLKPEDTAVYYCATRRIWTQSYDGGLYGYYYWGQGTQVTVSS | high polyreactivity
